Laboratory results taken from PMC9482650, “Quantitative fragmentomics allow affinity mapping of interactomes” (Nature Communications, 2022).

Assays:
Experiment in all cases: holdup assay
Parameters in all cases: key: below the threshold = too weak to quantify, mostly under pKd 3.1 to 4
[1] = biological target: T1, APBA3_2, O96018
T1 sequence (O96018 480-570, limits assumed, looked up): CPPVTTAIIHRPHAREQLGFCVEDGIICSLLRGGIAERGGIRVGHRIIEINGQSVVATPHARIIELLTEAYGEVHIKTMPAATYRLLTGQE

[2] = biological target: T2, CNKSR1, Q969H4
T2 sequence (Q969H4 191-295, limits assumed, looked up): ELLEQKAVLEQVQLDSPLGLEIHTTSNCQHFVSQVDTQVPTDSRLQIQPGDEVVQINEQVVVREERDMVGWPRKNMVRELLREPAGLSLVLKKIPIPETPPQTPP

[3] = biological target: GIPC3, Q8TF64
[4] = biological target: GRIP2_2, Q9C0E4
[5] = biological target: Inadl_7, Q8NI35
[6] = biological target: MAGI1_5, Q96QZ7
[7] = biological target: MAGI1_6, Q96QZ7
[8] = biological target: T3, MPDZ_6, O75970
T3 sequence (O75970 1003-1099, limits assumed, looked up): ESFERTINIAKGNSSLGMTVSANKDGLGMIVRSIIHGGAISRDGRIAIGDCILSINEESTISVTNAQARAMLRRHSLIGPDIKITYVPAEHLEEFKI

[9] = biological target: T4, NHERF1_1, O14745
T4 sequence (O14745 9-104, limits assumed, looked up): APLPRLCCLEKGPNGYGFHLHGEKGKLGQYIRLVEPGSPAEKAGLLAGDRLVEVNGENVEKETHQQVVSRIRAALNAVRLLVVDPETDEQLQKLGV

[10] = biological target: PARD3B_2, Q8TEW8
[11] = biological target: T5, PARD6B, Q9BYG5
T5 sequence (Q9BYG5 152-260, limits assumed, looked up): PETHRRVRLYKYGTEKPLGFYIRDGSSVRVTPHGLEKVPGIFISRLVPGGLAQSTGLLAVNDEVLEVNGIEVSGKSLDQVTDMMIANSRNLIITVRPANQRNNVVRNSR

[12] = biological target: T6, PARD6G, Q9BYG4
T6 sequence (Q9BYG4 153-261, limits assumed, looked up): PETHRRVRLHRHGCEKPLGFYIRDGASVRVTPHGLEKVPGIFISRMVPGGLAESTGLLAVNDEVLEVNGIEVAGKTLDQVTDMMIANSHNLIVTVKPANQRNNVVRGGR

[13] = biological target: T7, PDLIM3, Q53GG5
T7 sequence (Q53GG5 1-94, limits assumed, looked up): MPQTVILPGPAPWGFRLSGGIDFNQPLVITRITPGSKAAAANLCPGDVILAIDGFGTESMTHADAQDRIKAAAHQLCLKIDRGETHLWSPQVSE

[14] = biological target: T8, PDZD7_1, Q9H5P4
T8 sequence (Q9H5P4 81-178, limits assumed, looked up): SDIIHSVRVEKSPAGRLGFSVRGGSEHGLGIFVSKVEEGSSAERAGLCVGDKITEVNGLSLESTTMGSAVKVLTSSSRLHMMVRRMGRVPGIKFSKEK

[15] = biological target: T9, PDZD8, Q8NEN9
T9 sequence (Q8NEN9 361-459, limits assumed, looked up): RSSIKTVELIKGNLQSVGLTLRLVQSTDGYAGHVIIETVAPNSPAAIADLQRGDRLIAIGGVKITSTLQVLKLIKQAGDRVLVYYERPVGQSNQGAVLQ

[16] = biological target: PTPN13_2, Q12923
[17] = biological target: T10, PTPN13_4, Q12923
T10 sequence (Q12923 1783-1878, limits assumed, looked up): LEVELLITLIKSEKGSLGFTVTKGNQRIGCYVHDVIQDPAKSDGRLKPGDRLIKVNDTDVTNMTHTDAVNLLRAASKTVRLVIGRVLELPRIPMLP

[18] = biological target: RIMS1, Q86UR5
[19] = biological target: RIMS2, Q9UQ26
[20] = biological target: SCRIB_4, Q14160
[21] = biological target: T11, SHANK3, Q9BYB0
T11 sequence (Q9BYB0 641-750, limits assumed, looked up): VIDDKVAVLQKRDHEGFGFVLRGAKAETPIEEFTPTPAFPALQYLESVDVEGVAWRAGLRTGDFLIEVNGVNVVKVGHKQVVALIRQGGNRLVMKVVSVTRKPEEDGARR

[22] = biological target: T12, USH1C_1, Q9Y6N9
T12 sequence (Q9Y6N9 82-179, limits assumed, looked up): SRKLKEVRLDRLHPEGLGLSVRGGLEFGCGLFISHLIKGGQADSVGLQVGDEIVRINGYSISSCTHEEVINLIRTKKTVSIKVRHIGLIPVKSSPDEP

[23] = biological target: O00233; settings: plain residues with an end cap or a label only (N-terminal biotin on a linker: ttds)
[24] = biological target: Q96HC4; settings: plain residues with an end cap or a label only (N-terminal biotin on a linker: ttds)
[25] = biological target: Q96JY6; settings: plain residues with an end cap or a label only (N-terminal biotin on a linker: ttds)
[26] = plain residues with an end cap or a label only (N-terminal biotin on a linker: ttds)
[27] = plain residues with an end cap or a label only (N-terminal biotin on a linker: none)

SCRIB_4, Q14160, sequence (Q14160 1095-1204): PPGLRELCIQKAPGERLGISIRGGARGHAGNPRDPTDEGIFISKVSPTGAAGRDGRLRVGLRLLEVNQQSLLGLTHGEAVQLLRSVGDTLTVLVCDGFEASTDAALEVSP
PTPN13_2, Q12923, sequence (Q12923 1363-1462): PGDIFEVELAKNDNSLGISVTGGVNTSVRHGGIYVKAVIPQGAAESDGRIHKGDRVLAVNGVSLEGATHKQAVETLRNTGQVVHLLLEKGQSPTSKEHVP
PARD3B_2, Q8TEW8, sequence (Q8TEW8 376-471): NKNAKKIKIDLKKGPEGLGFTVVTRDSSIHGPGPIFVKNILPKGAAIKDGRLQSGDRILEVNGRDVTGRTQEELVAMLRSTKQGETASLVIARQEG
GIPC3, Q8TF64, sequence (Q8TF64 107-202): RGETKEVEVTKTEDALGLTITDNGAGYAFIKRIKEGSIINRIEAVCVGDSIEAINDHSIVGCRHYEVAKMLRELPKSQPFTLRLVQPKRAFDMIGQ
MAGI1_6, Q96QZ7, sequence (Q96QZ7 1146-1238): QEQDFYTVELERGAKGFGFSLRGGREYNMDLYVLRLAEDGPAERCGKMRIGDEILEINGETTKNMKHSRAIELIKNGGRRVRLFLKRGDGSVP
RIMS2, Q9UQ26, sequence (Q9UQ26 637-758): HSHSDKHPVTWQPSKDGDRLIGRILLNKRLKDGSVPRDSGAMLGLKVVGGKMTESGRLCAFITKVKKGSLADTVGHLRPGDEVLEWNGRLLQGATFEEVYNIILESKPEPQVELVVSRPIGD
GRIP2_2, Q9C0E4, sequence (Q9C0E4 137-245): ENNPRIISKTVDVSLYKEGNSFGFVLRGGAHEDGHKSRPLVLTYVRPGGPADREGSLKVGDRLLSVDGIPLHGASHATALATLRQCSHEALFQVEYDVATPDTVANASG
Inadl_7, Q8NI35, sequence (Q8NI35 1219-1332): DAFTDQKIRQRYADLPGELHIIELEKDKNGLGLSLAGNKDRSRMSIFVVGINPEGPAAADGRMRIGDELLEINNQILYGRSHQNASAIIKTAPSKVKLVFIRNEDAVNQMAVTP
RIMS1, Q86UR5, sequence (Q86UR5 584-692): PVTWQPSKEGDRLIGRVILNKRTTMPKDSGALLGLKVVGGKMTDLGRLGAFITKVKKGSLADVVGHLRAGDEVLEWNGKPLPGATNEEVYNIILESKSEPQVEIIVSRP
MAGI1_5, Q96QZ7, sequence (Q96QZ7 986-1098): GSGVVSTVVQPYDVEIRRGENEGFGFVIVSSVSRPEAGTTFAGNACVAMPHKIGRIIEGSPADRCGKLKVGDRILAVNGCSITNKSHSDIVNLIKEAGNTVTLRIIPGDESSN

B1: HPV73-E6, Q82005 (peptide)
chain: SGSRPSATVV
[1]; [26]
  pKd: below the threshold
[2]; [26]
  pKd: below the threshold
[3]; [26]
  pKd: below the threshold
[4]; [26]
  pKd: below the threshold
[5]; [26]
  pKd: below the threshold
[6]; [26]
  pKd: 4.11
[7]; [26]
  pKd: below the threshold
[8]; [26]
  pKd: below the threshold
[9]; [26]
  pKd: below the threshold
[10]; [26]
  pKd: 4.24
[11]; [26]
  pKd: below the threshold
[12]; [26]
  pKd: below the threshold
[13]; [26]
  pKd: below the threshold
[14]; [26]
  pKd: below the threshold
[15]; [26]
  pKd: 4.04
[16]; [26]
  pKd: below the threshold
[17]; [26]
  pKd: below the threshold
[18]; [26]
  pKd: below the threshold
[19]; [26]
  pKd: below the threshold
[20]; [26]
  pKd: below the threshold
[21]; [26]
  pKd: below the threshold
[22]; [26]
  pKd: below the threshold

B2: SARS-CoV2-E, P0DTC4 (peptide)
chain: NLNSSRVPDLLV
[1]; [27]
  pKd: below the threshold
[2]; [27]
  pKd: below the threshold
[3]; [27]
  pKd: below the threshold
[4]; [27]
  pKd: below the threshold
[5]; [27]
  pKd: below the threshold
[6]; [27]
  pKd: below the threshold
[7]; [27]
  pKd: below the threshold
[8]; [27]
  pKd: below the threshold
[9]; [27]
  pKd: below the threshold
[10]; [27]
  pKd: below the threshold
[11]; [27]
  pKd: below the threshold
[12]; [27]
  pKd: below the threshold
[13]; [27]
  pKd: below the threshold
[14]; [27]
  pKd: below the threshold
[15]; [27]
  pKd: below the threshold
[16]; [27]
  pKd: below the threshold
[17]; [27]
  pKd: 4.64
[18]; [27]
  pKd: below the threshold
[19]; [27]
  pKd: below the threshold
[20]; [27]
  pKd: below the threshold
[21]; [27]
  pKd: 3.83
[22]; [27]
  pKd: below the threshold

B3: HPV18-E6, P06463 (peptide)
chain: RLQRRRETQV
[1]; [26]
  pKd: below the threshold
[2]; [26]
  pKd: below the threshold
[3]; [26]
  pKd: below the threshold
[4]; [26]
  pKd: 4.48
[5]; [26]
  pKd: below the threshold
[6]; [26]
  pKd: below the threshold
[7]; [26]
  pKd: below the threshold
[8]; [26]
  pKd: below the threshold
[9]; [26]
  pKd: below the threshold
[10]; [26]
  pKd: below the threshold
[11]; [26]
  pKd: below the threshold
[12]; [26]
  pKd: below the threshold
[13]; [26]
  pKd: below the threshold
[14]; [26]
  pKd: below the threshold
[15]; [26]
  pKd: below the threshold
[16]; [26]
  pKd: below the threshold
[17]; [26]
  pKd: 4.03
[18]; [26]
  pKd: below the threshold
[19]; [26]
  pKd: below the threshold
[20]; [26]
  pKd: below the threshold
[21]; [26]
  pKd: below the threshold
[22]; [26]
  pKd: below the threshold

B4: HPV30-E6, P36809 (peptide)
chain: RHTTSTETAV
[1]; [26]
  pKd: below the threshold
[2]; [26]
  pKd: below the threshold
[3]; [26]
  pKd: below the threshold
[4]; [26]
  pKd: below the threshold
[5]; [26]
  pKd: below the threshold
[6]; [26]
  pKd: 5.02
[7]; [26]
  pKd: 4.73
[8]; [26]
  pKd: below the threshold
[9]; [26]
  pKd: below the threshold
[23]
  pKd: below the threshold
[10]; [26]
  pKd: below the threshold
[11]; [26]
  pKd: below the threshold
[12]; [26]
  pKd: below the threshold
[13]; [26]
  pKd: below the threshold
[14]; [26]
  pKd: below the threshold
[15]; [26]
  pKd: below the threshold
[16]; [26]
  pKd: below the threshold
[17]; [26]
  pKd: below the threshold
[24]
  pKd: below the threshold
[25]
  pKd: below the threshold
[18]; [26]
  pKd: below the threshold
[19]; [26]
  pKd: below the threshold
[20]; [26]
  pKd: 4.59
[21]; [26]
  pKd: below the threshold
[22]; [26]
  pKd: below the threshold

B5: HPV35-E6, P27228 (peptide)
chain: SKPTRRETEV
[1]; [26]
  pKd: below the threshold
[5]; [26]
  pKd: below the threshold
[6]; [26]
  pKd: 4.43
[7]; [26]
  pKd: 3.66
[8]; [26]
  pKd: below the threshold
[9]; [26]
  pKd: below the threshold
[10]; [26]
  pKd: below the threshold
[11]; [26]
  pKd: below the threshold
[12]; [26]
  pKd: below the threshold
[13]; [26]
  pKd: below the threshold
[14]; [26]
  pKd: below the threshold
[15]; [26]
  pKd: below the threshold
[16]; [26]
  pKd: below the threshold
[17]; [26]
  pKd: below the threshold
[18]; [26]
  pKd: below the threshold
[19]; [26]
  pKd: below the threshold
[20]; [26]
  pKd: 3.78
[21]; [26]
  pKd: below the threshold
[22]; [26]
  pKd: below the threshold

B6: HPV59-E6, Q81964 (peptide)
chain: QRQARSETLV
[1]; [26]
  pKd: below the threshold
[2]; [26]
  pKd: below the threshold
[3]; [26]
  pKd: below the threshold
[4]; [26]
  pKd: below the threshold
[5]; [26]
  pKd: below the threshold
[6]; [26]
  pKd: 5.41
[7]; [26]
  pKd: below the threshold
[8]; [26]
  pKd: below the threshold
[9]; [26]
  pKd: below the threshold
[23]
  pKd: below the threshold
[10]; [26]
  pKd: below the threshold
[11]; [26]
  pKd: below the threshold
[12]; [26]
  pKd: below the threshold
[13]; [26]
  pKd: below the threshold
[14]; [26]
  pKd: below the threshold
[15]; [26]
  pKd: below the threshold
[16]; [26]
  pKd: below the threshold
[17]; [26]
  pKd: 4.42
[24]
  pKd: below the threshold
[25]
  pKd: below the threshold
[18]; [26]
  pKd: below the threshold
[19]; [26]
  pKd: below the threshold
[20]; [26]
  pKd: below the threshold
[21]; [26]
  pKd: 4.22
[22]; [26]
  pKd: below the threshold
